Results on one molecule are retold here after patent US20250026834A1 (ZOETIS SERVICES, published 2025).

This assay deals with NGF (target protein of the anti-NGF antibodies mAb2 and mAb3). The assay can be described thus: cell-based or functional assay.
Chain of NGF (target protein of the anti-NGF antibodies mAb2 and mAb3) (P01138 122-241): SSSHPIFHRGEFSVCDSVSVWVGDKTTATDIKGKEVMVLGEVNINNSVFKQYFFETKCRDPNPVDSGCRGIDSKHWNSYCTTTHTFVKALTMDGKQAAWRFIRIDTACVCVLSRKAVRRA

B1: mAb3 (felinized anti-NGF, ZTS-768) IgG1a WT (antibody, V domains shown)
VH: DVQLVESGGDLVKPGGSLRLTCVASGFTYSNYWMHWVRQAPGKGLQWVARIDPYGGGTKHNEKFKRRFTISRDNAKNTLYLQMNSLKTEDTATYYCVRSGYDYYFDVWGQGTLVTVSS
VL: EIQMTQSPSSLSASPGDRVTITCRASENIYSFLAWYQQKPGKVPKLLIYNANTLAEGVPSRFSGSGSGTDFTLTISSLEPEDAATYYCQHHFGTPFTFGSGTKLEIKR
Turning to B1, the “IC50 (cell based potency assay)” value stood at 36 pM.
